Target: naked mole-rat ASIC1b (naked mole-rat)

## naked mole-rat ASIC3 (natural protein)
  pH EC50 of proton-gated currents, whole-cell patch clamp of CHO cells cotransfected with nmrASIC3 + nmrASIC1b: 5.58 pH

Reference: paper PMC5798305
